According to patent US20250361298A1 (published 2025):
Numbering of substitutions follows the chain as printed.

What was measured:
Assay in all cases: BLI
LY6G6D = molecular target: T1, LY6G6D
T1 chain: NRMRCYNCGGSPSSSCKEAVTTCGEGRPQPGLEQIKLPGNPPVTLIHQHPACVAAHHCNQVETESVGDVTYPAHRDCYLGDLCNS

cp1285 = molecular target: cp1285
cp1284 = molecular target: cp1284
cp1342 = molecular target: cp1342
cp1352 = molecular target: cp1352
cp1292 = molecular target: cp1292
cp1286 = molecular target: cp1286
cp1339 = molecular target: cp1339
cp1340 = molecular target: cp1340
cp1338 = molecular target: cp1338
cp1353 = molecular target: cp1353

B1: CB21-499-177 (antibody, V domains shown)
VH: EVQLVESGGGVVQPGRSLRLSCAASGFTFSSYGMHWVRQAPGKGLEWVAVIWYDASNKEYAPSVKGRFTISRDNSKNTLYLQMNSLRAEDTAIYYCARPGEGDYWGQGTLVTVSS
VL: DIQMTQSPSSLSASVGDRVTITCRASQGVRNDFGWFQQKPGKAPKRLIYGASSLQSGVPSRFSGSGSGTEFTLTISSLQPEDFATYYCLQQNSYPWTFGQGTKLEIK
Kd (LY6G6D): 0.255 nM

B2: CB21-499 (antibody, V domains shown)
VH: B1 VH with A55G, E59D, P62D
VL: B1 VL
Kd (LY6G6D): 0.337 nM

B3: cp203 (Fc fusion)
chain: T1 chain
modifications: biotinylated for BLI capture (site not stated)
Kd (cp1285): 1.78 nM
Kd (cp1284): 40.7 nM
Kd (cp1342): 1.73 nM
Kd (cp1352): 1.54 nM
Kd (cp1292): 6.97 nM
Kd (cp1286): 1.12 nM
Kd (cp1339): 0.824 nM
Kd (cp1340): 2.52 nM
Kd (cp1338): 0.695 nM
Kd (cp1353): 21.8 nM
